Source: US8114974B2, “Engineered microorganisms with enhanced fermentation activity” (Verdezyne, Inc., priority 2009, dated 2012)
Several values for one entry are separate records, joined by “and”; a condition that tells them apart may be missing. Equal values may be shown once.

Tests used:
[1] = system: 2-keto-3-deoxygluconate-6-phosphate aldolase (EDA); experiment: EDA activity assay with saturating amounts of E. coli EDD extract (LDH/NADH coupled); format: biochemical, Saccharomyces cerevisiae; settings: for EDA activity (comparison in words): saturating E. coli EDD extract
Procedure: EDA genes isolated from a variety of sources were expressed in yeast and evaluated independently of EDA activity, to identify EDA activities suitable of inclusion in an engineered yeast strain. […] The activity of integrated EDAs in Thermosacc-Gold haploids, were also evaluated in this manner. The table below describes oligonucleotide primers used to isolate the various EDA genes.
EDA extracts were prepared using the following protocol. Day 1
Grow 5 ml LB-Kan preps of BF1055 (BL21/DE3 with pET26b empty vector) and BF1706 (BL21DE3 with pET26b+E. coli EDD).
Grow 50 ml LB-Kan prep of BF1055, 2% (v/v) inoculate.
Grow 50 ml prep of BF1706 using Novagen's Overnight Express (46.45 ml LB-Kan, 1 ml solution 1, 2.5 ml solution 2, 50 μl solution 3, 5 μl of 1M MnCl2, 50 μl of 0.5 M FeCl2), 2% (v/v) inoculate.
Inoculate to OD600 of 0.2.
EDD extractions (adapted from Chemyan et al, Protein Science 16:2368-2377, 2007): • 1) Pellet cells in 50 ml conical tubes, 4° C., 3,000 rpm, 10 mins, discard supernatant. • 2) Resuspend in 2 ml degassed PDGH buffer (20 mM MES pH 6.5, 30 mM NaCl, 5 mM • MnCl2, 0.5 mM FeCl2, 10 mM 2-mercaptoethanol, 10 mM cysteine, sparged with nitrogen gas). Move to hungate tube. • 3) Add 0.1% Triton X-100, 10 ng/ml DNase, 10 μg/ml PMSF, 10 μg/ml TAME (Nα-(p-toluene sulfonyl)-L-arginine methyl ester), 100 μg/ml lysozyme. • 4) Sparge hungate tube with nitrogen gas, cap and seal. Incubate 2 hours at 37° C., swirl occasionally. • 5) Clarify by centrifugation in 2-ml tube, 4° C., 10 mins, 14,000 rpm. Keep supernatant. • 6) Treat with 150 mM pyruvate and 10 mM sodium cyanoborohydride (work in hood) to inactivate aldolase activity. Incubate 30 mins at room temperature. • 7) During incubation, pre-equilibrate PD-10 column from GE • a. Remove top cap, pour off storage buffer. • b. Cut off bottom tip, fit in 50 ml conical with adapter. • c. Pour 5 ml of 20 mM MES buffer, pH 6.5 (total of 5 times). Discard flow-through. • 8) Run sample through column, then add MES buffer to a total of 2.5 ml volume added. Discard flow-through. • 9) Run 3.5 ml 20 mM MES pH 6.5 buffer to elute protein. Discard column in appropriate waste receptacle. • 10) Perform Bradford assay (1:10 or 1:20 dilution). EDA extractions: • 1) Spin down in 50 ml conicals, 4° C., 3,400 rpm, 5 mins. Wash 2× with 25 ml water. • 2) Resuspend in 1 ml lysis buffer (50 mM Tris-HCl, pH 7, 10 mM MgCl2, 1× protease inhibitor. […]
Each reaction contains 50 mM Tris-HCl, pH 7, 10 mM MgCl2, 0.15 mM NADH, 15 μg LDH, saturating amounts of EDD determined empirically (usually ˜100 μg), 1-50 μg EDA (depending on level of activity), and 1 mM 6-phosphogluconate. Reactions are started by the addition of 6-phosphogluconate and monitored for 5 mins at 30° C.

[2] = system: xylose isomerase; experiment: In vitro xylose isomerase activity assay (sorbitol dehydrogenase/NADH coupled, A340; Km, specific activity, Ki for xylitol); format: biochemical, Saccharomyces cerevisiae
Procedure: About 20 μg of soluble whole cell extract was incubated in the presence of 100 mM Tris, pH 7.5, 10 mM MgCl2, 0.15 mM NADH (Sigma, St. Louis, Mo.), and about 2 U sorbitol dehydrogenase (Roche) at about 30° C. […] A Beckman DU-800 was utilized with an Enzyme Mechanism software package (Beckman Coulter, Inc.), and the change in the A340 was monitored for 2-3 minutes.
Approximately 20 μg of soluble whole cell extract from each transformed cell line, prepared using Y-PER plus reagent as described above, was incubated in a solution containing about 100 mM Tris, pH 7.5, 10 mM MgCl ? 2, 0.15 mM NADH (Sigma, St. Louis, Mo.), and 2 U Sorbitol Dehydrogenase (SDH) (Roche, Indianapolis, Ind.) at about 30° C. […] A Beckman DU-800 spectrophotometer was utilized with an Enzyme Mechanism software package (Beckman Coulter, Inc, Brea, Calif.), and the change in the A340 was monitored for 2-3 minutes.
Approximately 20 μg of soluble whole cell extract from each transformed cell line was prepared using Y-PER plus reagent as described above was incubated in a solution containing about 100 mM Tris, pH 7.5, 10 mM MgCl2, 0.15 mM NADH (Sigma, St. Louis, Mo.), and 2 U sorbitol dehydrogenase (SDH) (Roche, Indianapolis, Ind.) at about 30° C. […] A Beckman DU-800 spectrophotometer was utilized with an Enzyme Mechanism software package (Beckman Coulter, Inc, Brea, Calif.), and the change in the A340 was monitored for 2-3 minutes.
Approximately 20 μg of soluble whole cell extract from each transformed cell line was prepared using Y-PER plus reagent as described above was incubated in a solution containing about 100 mM Tris, pH 7.5, 10 mM MgCl ? .2, 0.15 mM NADH (Sigma, St. Louis, Mo.), and 2 U Sorbitol Dehydrogenase (SDH) (Roche, Indianapolis, Ind.) at about 30° C. […] A Beckman DU-800 spectrophotometer was utilized with an Enzyme Mechanism software package (Beckman Coulter, Inc, Brea, Calif.), and the change in the A340 was monitored for 2-3 minutes.
The Clostridiales enzyme was further characterized at 1974 μg to confirm the presence of activity.

[3] = system: xylose isomerase; experiment: Heterologous xylose isomerase expression in yeast (active yes/no); format: cell-based, Saccharomyces cerevisiae; settings: xylose isomerase of the donor organism expressed in engineered yeast (S. cerevisiae)
[4] = system: C5 strain; experiment: In vivo evaluation of xylose isomerase constructs in C5 strain, fermentation on xylose; format: cell-based, Saccharomyces cerevisiae; settings: final sample at 372 hours
From the text: The engineered strain was designed to include the following genetic modifications: the native Pho13 gene (alkaline phosphatase specific for p-nitrophenyl phosphate) was disrupted by inserting a construct containing the native TLK1 gene (Transketolase-1); the native aldose reductase gene (Gre3) was disrupted by inserting a construct containing the native high-affinity glucose transporter-7 gene (HXT7); the native glucose-repressible alcohol dehydrogenase II gene (adh2) was disrupted by inserting a construct containing the native xylulokinase gene (XYLK); and the native orotidine-5′ phosphate decarboxylase gene (ura3) was disrupted by inserting a construct containing the native transaldolase 1 gene (TAL1). The resulting strain had the following genotype: pho13::TKL1, gre3::HXT7, adh2::XYLK, ura3::TAL1.
The C5 strain was transformed using standard protocols with either p426GPD (as a control) or the chimeric variants XI-R, XI-Rp5, XI-Rp10, or XI-Rp15. The transformed cells were grown on SC-glucose minus uracil initially and then passaged onto SC-xylose minus uracil. Cultures of each of the above constructs were made in SC-xylose minus uracil—and grown for one week. The cultures were grown aerobically at 30° C. with 250 rpm agitation, 1 vvm sparge of process air, 21% O2. The pH was controlled at about 5.0 with 1N NaOH. […] At 24 hours elapsed fermentation time the fermentation was switched to anaerobic conditions.
Oxygen was purged with 100% N2 sparge at 1 vvm until percent O2 was below 1%. Aeration was then set at 0.25 vvm 100% N2.
The final sample also measured biomass by dry cell weight.

B1: E. coli EDA: 2-keto-3-deoxygluconate-6-phosphate aldolase of Escherichia coli expressed in yeast (protein, UniProt P0A955 1-213, looked up)
KHG/KDPG aldolase: MKNWKTSAESILTTGPVVPVIVVKKLEHAVPMAKALVAGGVRVLEVTLRTECAVDAIRAIAKEVPEAIVGAGTVLNPQQLAEVTEAGAQFAISPGLTEPLLKAATEGTIPLIPGISTVSELMLGMDYGLKEFKFFPAEANGGVKALQAIAGPFSQVRFCPTGGISPANYRDYLALKSVLCIGGSWLVPADALEAGDYDRITKLAREAVEGAKL
For B1, the “EDA activity, repeated experiment (FIG. 24)” value ([1]; 100 μg of EDD and 25 μg of EDA cell lysates (5 μg of E. coli EDA), linear range) was “most active of those EDA's tested”, the “EDA activity (comparison in words)” value ([1]; first experiment) was “higher activity as compared to the other EDA activities evaluated herein” and the “EDA activity relative to the EDA from P. aeruginosa” value ([1]; first experiment, E. coli EDA slope outside linear range, underestimated) was “approximately 16 fold”.

B2: Ruminococcus flavefaciens: native xylose isomerase from Ruminococcus flavefaciens strain 17 (SEQ ID NO: 31) (protein, listed as Ruminococcus flavefaciens)
chain: MEFFSNIGKIQYQGPKSTDPLSFKYYNPEEVINGKTMREHLKFALSWWHTMGGDGTDMFGCGTTDKTWGQSDPAARAKAKVDAAFEIMDKLSIDYYCFHDRDLSPEYGSLKATNDQLDIVTDYIKEKQGDKFKCLWGTAKCFDHPRFMHGAGTSPSADVFAFSAAQIKKALESTVKLGGNGYVFWGGREGYETLLNTNMGLELDNMARLMKMAVEYGRSIGFKGDFYIEPKPKEPTKHQYDFDTATVLGFLRKYGLDKDFKMNIEANHATLAQHTFQHELRVARDNGVFGSIDANQGDVLLGWDTDQFPTNIYDTTMCMYEVIKAGGFTNGGLNFDAKARRGSFTPEDIFYSYIAGMDAFALGFRAALKLIEDGRIDKFVADRYASWNTGIGADIIAGKADFASLEKYALEKGEVTASLSSGRQEMLESIVNNVLFSL
In the case of B2, the “Specific Activity” value ([2]; soluble whole cell extract, xylose 40-500 mM, 30° C., pH 7.5) is reported as 1.718 µmol/min/mg, the “Specific Activity” value ([2]; total soluble crude extracts from S. cerevisiae, xylose concentrations between 40 and 500 nM (so in the source), Michaelis Mentin plots) is reported as 0.9605 µmol/min/mg and the “Active? (yes/no)” value [3] is reported as “Yes”. The Glucose [4] was 0 g/L, the “Dry Cell Wt” value ([4]; listed as XI-R) was 2.20 g/L and 2.03 g/L and the Ethanol ([4]; listed as XI-R) was 15.65 g/L and 15.5 g/L. For the same molecule, the Xylose ([4]; listed as XI-R) was 3.14 g/L and 3.85 g/L.

B3: Codon-optimized EDA from P. aeruginosa: codon-optimized version of the P. aeruginosa EDA gene (protein, UniProt O68283 1-220, looked up)
2-dehydro-3-deoxy-phosphogluco …: MHNLEQKTARIDTLCREARILPVITIDREADILPMADALAAGGLTALEITLRTAHGLTAIRRLSEERPHLRIGAGTVLDPRTFAAAEKAGASFVVTPGCTDELLRFALDSEVPLLPGVASASEIMLAYRHGYRRFKLFPAEVSGGPAALKAFSGPFPDIRFCPTGGVSLNNLADYLAVPNVMCVGGTWMLPKAVVDRGDWAQVERLSREALERFAEHRRH
modifications: codon-optimized gene
For B3, the “EDA activity (comparison in words)” value ([1]; first experiment) was “slight improvement over the native sequence”.
